Measurements from doi:10.1101/2020.01.02.893370 (bioRxiv, 2020).

Legend:
[1] = biological target: sigma70 (RpoD);RNAP core enzyme wild type (alpha2 beta beta' omega) (Escherichia coli;Escherichia coli, UniProt P00579;P0A7Z4;P0A8V2;P0A8T7;P0A800 1-613;1-329;1-1342;1-1407;1-91, |); experiment: DNase I footprinting
[2] = biological target: E. coli RNA polymerase β′ subunit (E. coli, UniProt P0A8T7 1-1407); experiment: cryo-EM structure
Chain of E. coli RNA polymerase β′ subunit (P0A8T7 whole entry): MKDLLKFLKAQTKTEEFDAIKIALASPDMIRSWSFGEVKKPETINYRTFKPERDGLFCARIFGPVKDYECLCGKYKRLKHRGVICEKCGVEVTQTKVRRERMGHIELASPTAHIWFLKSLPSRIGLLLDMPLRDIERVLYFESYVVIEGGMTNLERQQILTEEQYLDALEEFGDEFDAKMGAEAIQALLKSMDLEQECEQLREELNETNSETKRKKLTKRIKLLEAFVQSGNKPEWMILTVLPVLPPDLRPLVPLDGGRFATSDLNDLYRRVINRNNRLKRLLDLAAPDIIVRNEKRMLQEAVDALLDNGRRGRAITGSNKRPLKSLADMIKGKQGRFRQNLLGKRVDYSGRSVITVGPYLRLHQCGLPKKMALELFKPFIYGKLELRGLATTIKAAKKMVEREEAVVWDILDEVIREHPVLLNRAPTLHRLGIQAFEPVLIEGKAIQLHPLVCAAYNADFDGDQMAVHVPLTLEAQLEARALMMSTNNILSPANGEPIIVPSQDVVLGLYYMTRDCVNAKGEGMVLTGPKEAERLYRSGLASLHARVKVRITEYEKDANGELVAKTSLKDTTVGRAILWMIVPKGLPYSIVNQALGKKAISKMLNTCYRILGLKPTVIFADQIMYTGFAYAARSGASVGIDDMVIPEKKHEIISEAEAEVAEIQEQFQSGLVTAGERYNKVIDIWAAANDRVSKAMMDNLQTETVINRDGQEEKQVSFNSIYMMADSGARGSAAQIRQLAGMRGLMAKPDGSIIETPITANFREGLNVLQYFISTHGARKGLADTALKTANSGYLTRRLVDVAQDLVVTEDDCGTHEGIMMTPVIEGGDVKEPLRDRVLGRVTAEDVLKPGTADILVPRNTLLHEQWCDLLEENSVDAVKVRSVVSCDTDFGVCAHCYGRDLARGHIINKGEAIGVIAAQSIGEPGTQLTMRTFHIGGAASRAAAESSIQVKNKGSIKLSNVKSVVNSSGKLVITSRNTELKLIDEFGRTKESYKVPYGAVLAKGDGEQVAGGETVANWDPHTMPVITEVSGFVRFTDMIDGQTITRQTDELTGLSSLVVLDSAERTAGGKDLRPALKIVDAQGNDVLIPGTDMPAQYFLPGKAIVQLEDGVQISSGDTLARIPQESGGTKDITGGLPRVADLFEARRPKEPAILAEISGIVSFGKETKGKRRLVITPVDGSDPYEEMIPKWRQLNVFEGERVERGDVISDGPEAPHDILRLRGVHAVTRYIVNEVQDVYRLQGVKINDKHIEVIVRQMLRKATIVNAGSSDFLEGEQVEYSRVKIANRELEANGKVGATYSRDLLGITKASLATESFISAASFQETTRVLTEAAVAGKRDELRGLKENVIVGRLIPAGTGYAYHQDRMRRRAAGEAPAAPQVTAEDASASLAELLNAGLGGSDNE

Chain of sigma70 (RpoD);RNAP core enzyme wild type (alpha2 beta beta' omega) (P00579 whole entry, chain 1 of 4): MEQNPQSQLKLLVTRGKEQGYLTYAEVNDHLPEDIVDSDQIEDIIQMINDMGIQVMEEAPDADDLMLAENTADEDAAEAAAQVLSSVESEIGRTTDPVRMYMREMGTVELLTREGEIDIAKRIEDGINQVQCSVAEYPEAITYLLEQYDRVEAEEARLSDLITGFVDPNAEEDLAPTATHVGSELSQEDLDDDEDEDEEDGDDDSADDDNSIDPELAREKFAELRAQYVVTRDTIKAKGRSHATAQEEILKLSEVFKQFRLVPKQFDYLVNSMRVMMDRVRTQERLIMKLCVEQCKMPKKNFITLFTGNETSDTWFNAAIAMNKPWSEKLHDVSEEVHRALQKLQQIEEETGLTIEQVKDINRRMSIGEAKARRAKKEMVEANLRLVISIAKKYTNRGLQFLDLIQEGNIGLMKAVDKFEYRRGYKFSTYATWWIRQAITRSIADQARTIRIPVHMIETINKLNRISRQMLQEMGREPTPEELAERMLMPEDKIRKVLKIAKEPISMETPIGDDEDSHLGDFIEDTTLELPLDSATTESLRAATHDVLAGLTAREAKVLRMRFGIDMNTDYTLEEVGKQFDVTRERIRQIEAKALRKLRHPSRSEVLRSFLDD
Chain of sigma70 (RpoD);RNAP core enzyme wild type (alpha2 beta beta' omega) (P0A7Z4 whole entry, chain 2 of 4): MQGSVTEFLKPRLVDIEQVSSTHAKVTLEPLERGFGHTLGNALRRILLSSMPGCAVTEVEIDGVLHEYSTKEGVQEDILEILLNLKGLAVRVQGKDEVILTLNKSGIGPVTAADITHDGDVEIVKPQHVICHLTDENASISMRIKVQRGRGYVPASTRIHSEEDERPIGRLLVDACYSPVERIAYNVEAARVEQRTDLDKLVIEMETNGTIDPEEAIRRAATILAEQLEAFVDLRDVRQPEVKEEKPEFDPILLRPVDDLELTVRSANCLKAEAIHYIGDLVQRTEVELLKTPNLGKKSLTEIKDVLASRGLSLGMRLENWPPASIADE
Chain of sigma70 (RpoD);RNAP core enzyme wild type (alpha2 beta beta' omega) (P0A8V2 whole entry, chain 3 of 4): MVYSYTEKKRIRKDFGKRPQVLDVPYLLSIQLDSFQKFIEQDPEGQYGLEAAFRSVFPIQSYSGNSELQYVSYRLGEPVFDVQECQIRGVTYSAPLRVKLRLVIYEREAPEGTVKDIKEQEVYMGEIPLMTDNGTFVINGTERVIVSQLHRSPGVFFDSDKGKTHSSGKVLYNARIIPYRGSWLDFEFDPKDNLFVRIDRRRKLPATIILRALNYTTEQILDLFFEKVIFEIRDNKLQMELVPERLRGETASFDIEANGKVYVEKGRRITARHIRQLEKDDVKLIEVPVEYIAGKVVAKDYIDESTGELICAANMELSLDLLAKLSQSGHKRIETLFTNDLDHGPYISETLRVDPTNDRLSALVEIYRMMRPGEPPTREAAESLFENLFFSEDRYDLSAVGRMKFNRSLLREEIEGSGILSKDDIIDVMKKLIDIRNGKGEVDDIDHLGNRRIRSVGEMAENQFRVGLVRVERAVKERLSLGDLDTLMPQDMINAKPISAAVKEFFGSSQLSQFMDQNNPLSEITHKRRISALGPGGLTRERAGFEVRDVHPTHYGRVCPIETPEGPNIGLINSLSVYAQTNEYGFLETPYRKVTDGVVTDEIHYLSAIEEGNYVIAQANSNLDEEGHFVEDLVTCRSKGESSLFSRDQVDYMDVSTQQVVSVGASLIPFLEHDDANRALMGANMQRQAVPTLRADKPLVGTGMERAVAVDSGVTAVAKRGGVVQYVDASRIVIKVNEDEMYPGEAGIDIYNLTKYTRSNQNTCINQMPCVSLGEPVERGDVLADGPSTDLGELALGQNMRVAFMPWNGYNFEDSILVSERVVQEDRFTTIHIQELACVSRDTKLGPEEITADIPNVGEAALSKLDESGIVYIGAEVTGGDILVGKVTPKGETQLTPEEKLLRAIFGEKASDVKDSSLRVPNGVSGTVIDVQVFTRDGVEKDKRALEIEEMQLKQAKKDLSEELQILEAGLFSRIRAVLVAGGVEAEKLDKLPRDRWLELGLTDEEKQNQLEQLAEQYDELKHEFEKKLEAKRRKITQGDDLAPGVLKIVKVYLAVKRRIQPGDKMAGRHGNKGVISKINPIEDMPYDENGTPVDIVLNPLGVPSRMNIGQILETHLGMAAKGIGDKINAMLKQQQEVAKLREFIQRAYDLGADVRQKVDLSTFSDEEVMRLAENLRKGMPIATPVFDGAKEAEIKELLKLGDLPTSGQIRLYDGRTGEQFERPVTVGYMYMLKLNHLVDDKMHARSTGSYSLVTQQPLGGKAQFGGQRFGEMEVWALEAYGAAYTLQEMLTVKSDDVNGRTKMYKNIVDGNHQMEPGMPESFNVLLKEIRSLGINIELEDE
Chain of sigma70 (RpoD);RNAP core enzyme wild type (alpha2 beta beta' omega) (P0A800 whole entry, chain 5 of 4): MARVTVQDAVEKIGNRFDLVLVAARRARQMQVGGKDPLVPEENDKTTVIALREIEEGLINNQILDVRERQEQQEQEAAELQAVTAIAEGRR

Row | Binder | binding result [1] | binding result [2]
1 | lacUV5p (dsDNA) DNA 1: CCCGCCGACAGGTTTCCCGACTGGAAAGCGGGCAGTGAGCGCAACGCAATTAATGTGAGTTAGCTCACTCATTAGGCACCCCAGGCTTTACACTTTATGCTTCCGGCTCGTATAATGTGTGGAATTGTGAGCGGATAACAATTTCACACAGGAAACAGCTATGACCATGGGCGCGG DNA 2: CCGCGCCCATGGTCATAGCTGTTTCCTGTGTGAAATTGTTATCCGCTCACAATTCCACACATTATACGAGCCGGAAGCATAAAGTGTAAAGCCTGGGGTGCCTAATGAGTGAGCTAACTCACATTAATTGCGTTGCGCTCACTGCCCGCTTTCCAGTCGGGAAACCTGTCGGCGGG | binds | 
2 | E. coli σ^28 factor (natural protein, UniProt P0AEM6 1-239, looked up) MNSLYTAEGVMDKHSLWQRYVPLVRHEALRLQVRLPASVELDDLLQAGGIGLLNAVERYDALQGTAFTTYAVQRIRGAMLDELRSRDWVPRSVRRNAREVAQAIGQLEQELGRNATETEVAERLGIDIADYRQMLLDTNNSQLFSYDEWREEHGDSIELVTDDHQRENPLQQLLDSNLRQRVMEAIETLPEREKLVLTLYYQEELNLKEIGAVLEVGESRVSQLHSQAIKRLRTKLGKL |  | binds
